Assay results: publication PMC8523169, “Competitive binding of MatP and topoisomerase IV to the MukB hinge domain” (eLife, 2021)

Columns and labels:
[1] = molecular target: the molecule itself; test: native MS; proteins buffer exchanged into 200 mM ammonium acetate pH 8.0, alone or mixed in different ratios (two or three components, with or without 50 bp DNA), 10 min on ice
[2] = molecular target: T1, full-length ParC, N-terminal 6xHis-tag (E. coli, UniProt P0AFI2 1-752); test: as above; details: both partners purified
T1 construct: ParC subunit of topoisomerase IV, E. coli, full length; also called His-ParC; ParC2; source: overexpressed, purified as previously published (Nolivos et al., 2016) with an added SEC step; not shown: His6, N-terminal, kept
T1 sequence (looked up): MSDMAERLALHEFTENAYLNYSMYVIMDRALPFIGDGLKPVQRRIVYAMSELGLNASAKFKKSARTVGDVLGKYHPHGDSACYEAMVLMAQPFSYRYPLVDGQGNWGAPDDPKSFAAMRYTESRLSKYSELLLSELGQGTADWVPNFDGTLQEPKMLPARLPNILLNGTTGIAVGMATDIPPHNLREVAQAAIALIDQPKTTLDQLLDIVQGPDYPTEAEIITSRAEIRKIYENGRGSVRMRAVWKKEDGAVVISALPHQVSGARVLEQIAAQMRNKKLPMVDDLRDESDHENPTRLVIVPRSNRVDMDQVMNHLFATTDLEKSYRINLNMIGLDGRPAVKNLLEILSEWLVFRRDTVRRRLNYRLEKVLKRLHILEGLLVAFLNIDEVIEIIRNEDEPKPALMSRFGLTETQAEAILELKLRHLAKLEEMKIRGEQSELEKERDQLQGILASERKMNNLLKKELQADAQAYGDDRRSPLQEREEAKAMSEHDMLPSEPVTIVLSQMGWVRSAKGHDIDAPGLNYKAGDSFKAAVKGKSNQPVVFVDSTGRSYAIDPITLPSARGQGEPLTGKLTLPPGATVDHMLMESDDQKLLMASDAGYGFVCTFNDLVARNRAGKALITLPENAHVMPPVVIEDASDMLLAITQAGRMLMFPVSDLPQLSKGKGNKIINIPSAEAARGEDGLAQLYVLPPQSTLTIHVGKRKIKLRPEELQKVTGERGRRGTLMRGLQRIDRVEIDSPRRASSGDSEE

[3] = molecular target: T1, full-length ParC, N-terminal 6xHis-tag; test: ITC; 100 µM LH titrated into 10 µM ParC at 25 °C; one-site model; three repeats; details: both partners purified

stoichiometry N [2]: 1 LH dimer per ParC dimer
Kd [3]: 690 nM
dH [3]: -7.48 kcal/mol
stoichiometry N [3]: 0.84
B1: MukB long hinge (LH; amino acid residues 568–863) (domain or fragment, E. coli, UniProt P22523 568-863, looked up)
chain: SLSDSVSNAREERMALRQEQEQLQSRIQSLMQRAPVWLAAQNSLNQLSEQCGEEFTSSQDVTEYLQQLLEREREAIVERDEVGARKNAVDEEIERLSQPGGSEDQRLNALAERFGGVLLSEIYDDVSLEDAPYFSALYGPSRHAIVVPDLSQVTEHLEGLTDCPEDLYLIEGDPQSFDDSVFSVDELEKAVVVKIADRQWRYSRFPEVPLFGRAARESRIESLHAEREVLSERFATLSFDVQKTQRLHQAFSRFIGSHLAVAFESDPEAEIRQLNSRRVELERALSNHENDNQQQR
notes: MukB, E. coli, residues 568-863: dimeric globular hinge domain and 20% of the coiled-coil region; also called LH (MBP cleaved); LH2; source: NEBExpress cells (pMAL-c5X), purified (amylose, Factor Xa cleavage, HiTrap Q XL, SEC); not shown: MBP, N-terminal, cleaved
stoichiometry N [1]: 2
